Measured values: article PMC11651597, “Characterization of a novel subfamily 1.4 lipase from Bacillus licheniformis IBRL-CHS2: Cloning and expression optimization” (PLOS ONE, 2024)

Substrate: CCCCCCCCCCCC(=O)Oc1ccc([N+](=O)[O-])cc1
Assay: purified protein
Type: biochemical, Bacillus licheniformis
Settings: 0.1-1 mM substrate, standard assay pH 7 phosphate buffer, 35 °C, 0.01% Triton X-100, 0.1% polyvinyl alcohol, DMSO

B1: MLipA (mature LipA lipase of B. licheniformis IBRL-CHS2) (Bacillus licheniformis DSM 13 = ATCC 14580) (protein)
chain: ASHNPVVMVHGIGGADYNFIGIKSYLQSQGWTSSELYAINFIDKTGNNINNAPRLSEYIKRVLNQTGASKVDIVAHSMGGANTLYYIKNLDGADKVGHVVTLGGANRLVTNTAPQNDKISYTSIYSTSDYIVLNSLSKLDGANNVQISGVSHVGLLFSSKVNALIKDGLTASGK
notes: signal peptide (residues 1-30) removed; E. coli BL21 (DE3); IMAC purified
  Km: 360 µM
